B1: SH3BP2 peptide 410-425 (SH3 domain-binding protein 2), 16-mer library wild type / TNKS ANK (TNKS 12 ANK repeats, residues 174-649) (parent complex)
chain 1: LPHLQRSPPDGQSFRS
chain 2: TGVPAVSGALRELLEACRNGDVSRVKRLVDAANVNAKDMAGRKSSPLHFAAGFGRKDVVEHLLQMGANVHARDDGGLIPLHNACSFGHAEVVSLLLCQGADPNARDNWNYTPLHEAAIKGKIDVCIVLLQHGADPNIRNTDGKSALDLADPSAKAVLTGEYKKDELLEAARSGNEEKLMALLTPLNVNCHASDGRKSTPLHLAAGYNRVRIVQLLLQHGADVHAKDKGGLVPLHNACSYGHYEVTELLLKHGACVNAMDLWQFTPLHEAASKNRVEVCSLLLSHGADPTLVNCHGKSAVDMAPTPELRERLTYEFKGHSLLQAAREADLAKVKKTLALEIINFKQPQSHETALHCAVASLHPKRKQVTELLLRKGANVNEKNKDFMTPLHVAAERAHNDVMEVLHKHGAKMNALDTLGQTALHRAALAGHLQTCRLLLSYGSDPSIISLQGFTAAQMGNEAVQQILSESTPIRTSD

In this experiment the parent is B1. The experiment can be described thus: proteomic peptide phage display deep mutational scan (ProP-PD DMS): M13 P8 16-mer library selected against immobilised GST-tagged bait for four days (rounds), NGS of the eluted pools per day and pseudo-replica; bait immobilised on MaxiSorp plates (10 µg), library pre-cleared on GST, 2 h binding at 4 °C, five washes; one round per day, days 1-4; value from days 2 and 3.
For chain 1 LHHLQRSPPDGQSFRS [chain 1 P2H], the screen value was 0.000416 average fractional NGS count over selection days 2 and 3 (reads of this peptide / all reads for the bait, averaged over ….

Consider chain 1 LEHLQRSPPDGQSFRS [chain 1 P2E], for which the screen value is 0.000462 average fractional NGS count over selection days 2 and 3 (reads of this peptide / all reads for the bait, averaged over ….

For chain 1 LDHLQRSPPDGQSFRS [chain 1 P2D], the screen value was 0.00379 average fractional NGS count over selection days 2 and 3 (reads of this peptide / all reads for the bait, averaged over ….

Turning to chain 1 LMHLQRSPPDGQSFRS [chain 1 P2M], the screen value was 0.000224 average fractional NGS count over selection days 2 and 3 (reads of this peptide / all reads for the bait, averaged over ….

Consider chain 1 LAHLQRSPPDGQSFRS [chain 1 P2A], for which the screen value is 0.00048 average fractional NGS count over selection days 2 and 3 (reads of this peptide / all reads for the bait, averaged over ….

Take chain 1 LGHLQRSPPDGQSFRS [chain 1 P2G]: the screen value is 0.000225 average fractional NGS count over selection days 2 and 3 (reads of this peptide / all reads for the bait, averaged over ….

Turning to chain 1 LLHLQRSPPDGQSFRS [chain 1 P2L], the screen value is 0.000238 average fractional NGS count over selection days 2 and 3 (reads of this peptide / all reads for the bait, averaged over ….

Consider chain 1 LFHLQRSPPDGQSFRS [chain 1 P2F], for which the screen value was 0.00201 average fractional NGS count over selection days 2 and 3 (reads of this peptide / all reads for the bait, averaged over ….

Regarding chain 1 LPNLQRSPPDGQSFRS [chain 1 H3N], the screen value is 0.000146 average fractional NGS count over selection days 2 and 3 (reads of this peptide / all reads for the bait, averaged over ….

In the case of chain 1 LPMLQRSPPDGQSFRS [chain 1 H3M], the screen value was 0.0014 average fractional NGS count over selection days 2 and 3 (reads of this peptide / all reads for the bait, averaged over ….

For the variant chain 1 LPFLQRSPPDGQSFRS [chain 1 H3F], the screen value was 0.000397 average fractional NGS count over selection days 2 and 3 (reads of this peptide / all reads for the bait, averaged over ….

In the case of chain 1 LPYLQRSPPDGQSFRS [chain 1 H3Y], the screen value is 0.00044 average fractional NGS count over selection days 2 and 3 (reads of this peptide / all reads for the bait, averaged over ….

With chain 1 LPQLQRSPPDGQSFRS [chain 1 H3Q], the screen value was 0.000537 average fractional NGS count over selection days 2 and 3 (reads of this peptide / all reads for the bait, averaged over ….

In the case of chain 1 LPGLQRSPPDGQSFRS [chain 1 H3G], the screen value is 0.000244 average fractional NGS count over selection days 2 and 3 (reads of this peptide / all reads for the bait, averaged over ….

Consider chain 1 LPVLQRSPPDGQSFRS [chain 1 H3V], for which the screen value is 0.00187 average fractional NGS count over selection days 2 and 3 (reads of this peptide / all reads for the bait, averaged over ….

Regarding chain 1 LPHLQRSPADGQSFRS [chain 1 P9A], the screen value was 0.00156 average fractional NGS count over selection days 2 and 3 (reads of this peptide / all reads for the bait, averaged over ….

As to chain 1 LPHLQRSPSDGQSFRS [chain 1 P9S], the screen value was 0.000178 average fractional NGS count over selection days 2 and 3 (reads of this peptide / all reads for the bait, averaged over ….

Consider chain 1 SPHLQRSPPDGQSFRS [chain 1 L1S], for which the screen value is 0.00146 average fractional NGS count over selection days 2 and 3 (reads of this peptide / all reads for the bait, averaged over ….

Take chain 1 GPHLQRSPPDGQSFRS [chain 1 L1G]: the screen value is 0.000775 average fractional NGS count over selection days 2 and 3 (reads of this peptide / all reads for the bait, averaged over ….

Regarding chain 1 APHLQRSPPDGQSFRS [chain 1 L1A], the screen value was 0.00143 average fractional NGS count over selection days 2 and 3 (reads of this peptide / all reads for the bait, averaged over ….

Regarding chain 1 EPHLQRSPPDGQSFRS [chain 1 L1E], the screen value was 0.00294 average fractional NGS count over selection days 2 and 3 (reads of this peptide / all reads for the bait, averaged over ….

Regarding chain 1 IPHLQRSPPDGQSFRS [chain 1 L1I], the screen value was 0.00049 average fractional NGS count over selection days 2 and 3 (reads of this peptide / all reads for the bait, averaged over ….

chain 1 RPHLQRSPPDGQSFRS [chain 1 L1R]: the screen value is 0.000257 average fractional NGS count over selection days 2 and 3 (reads of this peptide / all reads for the bait, averaged over ….

chain 1 DPHLQRSPPDGQSFRS [chain 1 L1D]: the screen value is 0.00232 average fractional NGS count over selection days 2 and 3 (reads of this peptide / all reads for the bait, averaged over ….

As for chain 1 KPHLQRSPPDGQSFRS [chain 1 L1K], the screen value is 0.000567 average fractional NGS count over selection days 2 and 3 (reads of this peptide / all reads for the bait, averaged over ….

As for chain 1 FPHLQRSPPDGQSFRS [chain 1 L1F], the screen value is 0.000588 average fractional NGS count over selection days 2 and 3 (reads of this peptide / all reads for the bait, averaged over ….

On to chain 1 WPHLQRSPPDGQSFRS [chain 1 L1W], for which the screen value is 0.000782 average fractional NGS count over selection days 2 and 3 (reads of this peptide / all reads for the bait, averaged over ….

For chain 1 MPHLQRSPPDGQSFRS [chain 1 L1M], the screen value was 0.00036 average fractional NGS count over selection days 2 and 3 (reads of this peptide / all reads for the bait, averaged over ….

For the variant chain 1 PPHLQRSPPDGQSFRS [chain 1 L1P], the screen value is 0.000357 average fractional NGS count over selection days 2 and 3 (reads of this peptide / all reads for the bait, averaged over ….

For chain 1 LPHLQRSPPDGMSFRS [chain 1 Q12M], the screen value was 0.00481 average fractional NGS count over selection days 2 and 3 (reads of this peptide / all reads for the bait, averaged over ….

Consider chain 1 LPHLQRSPPDGTSFRS [chain 1 Q12T], for which the screen value is 0.00582 average fractional NGS count over selection days 2 and 3 (reads of this peptide / all reads for the bait, averaged over ….

As for chain 1 LPHLQRSPPDGESFRS [chain 1 Q12E], the screen value was 0.000127 average fractional NGS count over selection days 2 and 3 (reads of this peptide / all reads for the bait, averaged over ….

chain 1 LPHLQRSPPDGISFRS [chain 1 Q12I]: the screen value was 0.000382 average fractional NGS count over selection days 2 and 3 (reads of this peptide / all reads for the bait, averaged over ….

As for chain 1 LPHLQRSPPDGVSFRS [chain 1 Q12V], the screen value is 0.000654 average fractional NGS count over selection days 2 and 3 (reads of this peptide / all reads for the bait, averaged over ….

Turning to chain 1 LPHLQRSPPDGGSFRS [chain 1 Q12G], the screen value is 0.000919 average fractional NGS count over selection days 2 and 3 (reads of this peptide / all reads for the bait, averaged over ….

chain 1 LPHLQRSPPDGYSFRS [chain 1 Q12Y]: the screen value is 0.000794 average fractional NGS count over selection days 2 and 3 (reads of this peptide / all reads for the bait, averaged over ….

As to chain 1 LPHLQRSPPDGASFRS [chain 1 Q12A], the screen value is 0.00503 average fractional NGS count over selection days 2 and 3 (reads of this peptide / all reads for the bait, averaged over ….

For the variant chain 1 LPHLHRSPPDGQSFRS [chain 1 Q5H], the screen value was 0.0031 average fractional NGS count over selection days 2 and 3 (reads of this peptide / all reads for the bait, averaged over ….

As for chain 1 LPHLTRSPPDGQSFRS [chain 1 Q5T], the screen value was 0.00193 average fractional NGS count over selection days 2 and 3 (reads of this peptide / all reads for the bait, averaged over ….

With chain 1 LPHLGRSPPDGQSFRS [chain 1 Q5G], the screen value was 0.00123 average fractional NGS count over selection days 2 and 3 (reads of this peptide / all reads for the bait, averaged over ….

With chain 1 LPHLFRSPPDGQSFRS [chain 1 Q5F], the screen value is 0.00256 average fractional NGS count over selection days 2 and 3 (reads of this peptide / all reads for the bait, averaged over ….

With chain 1 LPHLNRSPPDGQSFRS [chain 1 Q5N], the screen value was 0.000679 average fractional NGS count over selection days 2 and 3 (reads of this peptide / all reads for the bait, averaged over ….

Turning to chain 1 LPHLARSPPDGQSFRS [chain 1 Q5A], the screen value was 0.000231 average fractional NGS count over selection days 2 and 3 (reads of this peptide / all reads for the bait, averaged over ….

For the variant chain 1 LPHLSRSPPDGQSFRS [chain 1 Q5S], the screen value is 0.000417 average fractional NGS count over selection days 2 and 3 (reads of this peptide / all reads for the bait, averaged over ….

As for chain 1 LPHLERSPPDGQSFRS [chain 1 Q5E], the screen value was 0.000543 average fractional NGS count over selection days 2 and 3 (reads of this peptide / all reads for the bait, averaged over ….

For the variant chain 1 LPHLMRSPPDGQSFRS [chain 1 Q5M], the screen value was 0.00158 average fractional NGS count over selection days 2 and 3 (reads of this peptide / all reads for the bait, averaged over ….

With chain 1 LPHLVRSPPDGQSFRS [chain 1 Q5V], the screen value is 0.001 average fractional NGS count over selection days 2 and 3 (reads of this peptide / all reads for the bait, averaged over ….

On to chain 1 LPHLLRSPPDGQSFRS [chain 1 Q5L], for which the screen value is 0.000257 average fractional NGS count over selection days 2 and 3 (reads of this peptide / all reads for the bait, averaged over ….

For chain 1 LPHDQRSPPDGQSFRS [chain 1 L4D], the screen value is 0.00145 average fractional NGS count over selection days 2 and 3 (reads of this peptide / all reads for the bait, averaged over ….

Take chain 1 LPHEQRSPPDGQSFRS [chain 1 L4E]: the screen value is 0.00039 average fractional NGS count over selection days 2 and 3 (reads of this peptide / all reads for the bait, averaged over ….

As for chain 1 LPHYQRSPPDGQSFRS [chain 1 L4Y], the screen value is 0.000355 average fractional NGS count over selection days 2 and 3 (reads of this peptide / all reads for the bait, averaged over ….

Regarding chain 1 LPHFQRSPPDGQSFRS [chain 1 L4F], the screen value was 0.00253 average fractional NGS count over selection days 2 and 3 (reads of this peptide / all reads for the bait, averaged over ….

For chain 1 LPHGQRSPPDGQSFRS [chain 1 L4G], the screen value is 0.000123 average fractional NGS count over selection days 2 and 3 (reads of this peptide / all reads for the bait, averaged over ….

Take chain 1 LPHMQRSPPDGQSFRS [chain 1 L4M]: the screen value was 0.0015 average fractional NGS count over selection days 2 and 3 (reads of this peptide / all reads for the bait, averaged over ….

For chain 1 LPHAQRSPPDGQSFRS [chain 1 L4A], the screen value is 0.00506 average fractional NGS count over selection days 2 and 3 (reads of this peptide / all reads for the bait, averaged over ….

For chain 1 LPHWQRSPPDGQSFRS [chain 1 L4W], the screen value was 0.00434 average fractional NGS count over selection days 2 and 3 (reads of this peptide / all reads for the bait, averaged over ….

Source of the values: publication PMC12102759 (2025).
